Assay results reported in patent US20240287190A1 (THERANOTICS, published 2024).

T1: recombinant human TGFβ3 protein (R&D Systems, Cat #8420-B3-025/CF) (human, UniProt P10600 301-412)
T1 construct: Bought protein
T1 sequence (looked up): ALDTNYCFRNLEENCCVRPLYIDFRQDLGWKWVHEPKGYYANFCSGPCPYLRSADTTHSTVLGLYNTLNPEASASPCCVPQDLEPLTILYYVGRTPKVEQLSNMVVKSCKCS

T2: recombinant human TGFβ2 (R&D Systems, Cat #302-B2-010/CF) (human, UniProt P61812 303-414)
T2 construct: Bought protein
T2 sequence (looked up): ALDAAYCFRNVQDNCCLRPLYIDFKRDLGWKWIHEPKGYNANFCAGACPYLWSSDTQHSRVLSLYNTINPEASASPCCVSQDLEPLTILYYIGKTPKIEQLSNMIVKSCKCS

T3: recombinant human B7-H3 protein (R&D Systems, Cat #1027-B3-100) (human, UniProt Q5ZPR3-2 29-245)
T3 construct: Bought protein; also called CD276
T3 sequence (looked up): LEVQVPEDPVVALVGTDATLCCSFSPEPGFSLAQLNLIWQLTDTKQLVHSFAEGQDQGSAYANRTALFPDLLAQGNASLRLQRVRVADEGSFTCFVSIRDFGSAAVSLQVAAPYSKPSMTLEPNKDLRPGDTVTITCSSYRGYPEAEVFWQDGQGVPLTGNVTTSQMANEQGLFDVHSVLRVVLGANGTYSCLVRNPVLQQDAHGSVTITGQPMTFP


Columns and labels:
[1] = molecular target: T1, recombinant human TGFβ3 protein (R&D …); assay: ELISA; plate-coated TGFβ3, bispecific titrated, anti-human IgG1 Fc-HRP
Protocol: (§1) After coating a plate with each of recombinant human TGFβ1 protein (R&D Systems, Cat #7754-BH-025/CF) and TGFβ3 protein (R&D Systems, Cat #8420-B3-025/CF) (30 μL, 0.5 μg/ml) in 1×PBS solution, the plate was covered and cultured overnight at 2 to 8° C. Thereafter, the wells were washed once with 150 μL PBS per well, and blocked with 120 μL of blocking buffer (1×PBS-T w/3% BSA) per well for 2 hours at room temperature. The blocking buffer was discarded and 30 μL solution containing #1 to #9 bispecific molecules (5-fold serial dilution) was added, followed by reaction for 1 hour at room temperature. Then, the wells were washed three times with 150 μL PBS per well. 30 μL of HRP conjugated anti-Human IgG1 Fc Ab diluted in the blocking buffer was added to each well, and reacted at room temperature for 1 hour. Thereafter, the wells were washed three times with 150 μL of washing buffer per well, the HRP reaction was developed using TMB, and the reaction was stopped with 30 μL 1 N HCl. Then, the optical density (OD) was measured at 450 nm.

[2] = molecular target: T4, recombinant human TGFβ1 protein (R&D Systems, Cat #7754-BH-025/CF) (human, UniProt P01137 279-390); assay: ELISA; plate-coated TGFβ1, bispecific titrated, anti-human IgG1 Fc-HRP
T4 construct: Bought protein
T4 sequence (P01137 279-390 limits assumed): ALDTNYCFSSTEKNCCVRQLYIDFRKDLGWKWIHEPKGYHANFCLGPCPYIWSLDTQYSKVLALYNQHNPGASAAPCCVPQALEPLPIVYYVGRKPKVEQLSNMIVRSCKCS
Protocol: as §1

[3] = molecular target: T2, recombinant human TGFβ2 (R&D Systems, …); assay: ELISA; plate-coated bispecific, TGFβ2 titrated (EC50 is a TGFβ2 concentration), biotinylated anti-TGFβ2 detection
Protocol: After coating a plate with 1×PBS solution containing #1 to #9 bispecific molecules (30 μL, 0.5 μM), the plate was covered and cultured overnight at 2 to 8° C. Thereafter, the wells were washed once with 150 μL PBS per well, and blocked with 120 µL of blocking buffer (1×PBS-T w/3% BSA) per well for 2 hours at room temperature. The blocking buffer was discarded, recombinant human TGFβ2 (R&D Systems, Cat #302-B2-010/CF) was 4-fold diluted in serial from 30 nM. After adding each diluted solution to the wells by 30 μL per well, it was reacted at room temperature for 1 hour. Then, the wells were washed three times with 150 μL of washing buffer (1×PBS-T) per well, followed by diluting Biotinylated-TGF-beta2 antibody combined with the recombinant human TGFβ2 protein in the blocking buffer. After adding the diluted solution to the wells by 30 μL per well, it was reacted at room temperature for 1 hour. Further, after washing the wells three times with 150 μL of washing buffer (1×PBS-T) per well, 30 μL of streptavidin-HRP diluted in the blocking buffer was added to each well, and reacted at room temperature for 1 hour. After washing the wells three times with 150 μL of washing buffer (1×PBS-T) per well, HRP reaction was developed using TMB, and the reaction was stopped with 30 μL 1 N HCl. Then, the optical density (OD) was measured at 450 nm.

[4] = molecular target: T3, recombinant human B7-H3 protein (R&D …); assay: ELISA; plate-coated recombinant human B7-H3, bispecific titrated
Protocol: After coating a plate with recombinant human B7-H3 protein (R&D Systems, Cat #1027-B3-100) (30 μL, 20 nM) in 1×PBS solution, the plate was covered and coated overnight at 2 to 8° C. Thereafter, the wells were washed once with 150 μL PBS per well, and blocked with 120 μL of blocking buffer (1×PBS-T w/3% BSA) per well for 2 hours at room temperature. The blocking buffer was discarded and 30 μL of antibody solution was added using a series of dilution solutions (using the blocking buffer, #1 to #9 bispecific molecules were diluted in serial by two times; 2-fold serial dilution), and reacted at room temperature for 1 hour, then the wells were washed three times with 150 μL of wash buffer per well. 30 μL of HRP conjugate of anti-HA Tag antibody diluted in the blocking buffer was added to each well, and reacted at room temperature for 1 hour. Thereafter, the wells were washed three times with 150 μL of washing buffer per well, the HRP reaction was developed using TMB, the reaction was stopped with 1 N HCl, and then the optical density (OD) was measured at 450 nm.
It was confirmed that #1 to #9 bispecific molecules specifically bind to B7-H3 with excellent binding force.

[5] = molecular target: T4, recombinant human TGFβ1 protein (R&D …); assay: bridging ELISA; plate-coated TGFβ1, bispecific titrated, detected with His-tag human B7-H3 and anti-His-HRP
Protocol: After coating a plate with the recombinant human TGFβ1 protein (30 μL, 0.5 μg/ml) in 1×PBS solution, the plate was covered and cultured overnight at 2 to 8° C. Thereafter, the wells were washed once with 150 μL PBS per well, and blocked with 120 µL of blocking buffer (1×PBS-T w/3% BSA) per well for 2 hours at room temperature. The blocking buffer was discarded and 4-fold diluted antibody solution was added by 30 μL, followed by reaction for 2 hour at room temperature. Then, the wells were washed three times with 150 μL of washing buffer (1×PBS-T) per well.
Thereafter, 30 μL of His-tag human B7-H3 protein diluted in the blocking buffer was added to each well, and cultured at room temperature for 2 hours. Thereafter, the wells were washed three times with 150 μL of washing buffer per well. 30 μL of HRP conjugate of anti-His tag antibody diluted in the blocking buffer was added to each well, and reacted at room temperature for 1 hour. Thereafter, the wells were washed three times with 150 μL of washing buffer per well, the HRP reaction was developed using TMB, and the reaction was stopped with 30 μL 1 N HCl. Then, the optical density (OD) was measured at 450 nm.

[6] = molecular target: T4, recombinant human TGFβ1 protein (R&D …); assay: bridging ELISA on plate-coated TGFβ1, detected with His-tag human B7-H3; paragraph 158 says the mono antibodies are not bound to TGFβ1

| Binder | EC50 [1] [nM] | EC50 [2] [nM] | EC50 [3] [nM] | EC50 [4] [nM] | EC50 [5] [nM] | binding result [6] |
| --- | --- | --- | --- | --- | --- | --- |
| #1 bispecific molecule (bispecific antibody, human IgG1, N297A, also called #1 (TRAP); B7-H3/TGFβ bispecific molecule #1) heavy: not shown VL: EIVLTQSPGTLSLSPGERATLSCRASQGIGNYLGWYQQKPGQAPRLLIYTASSLQSGIPDRFSGSGSGTDFTLTISRLEPEDFAVYYCQQGYSTPSWTFGQGTKVEIK | 4.72 | 3.84 | 0.136 | 27.5 | 3.83 | – |
| #1 (mono) B7-H3 mono antibody free of TGFβ binding portion (antibody, human IgG1, N297A, V domains shown) VH: EVQLLESGGGLVQPGGSLRLSCAASGFTFSSYAMSWVRQAPGKGLEWVSTITGSGGSTYYADSVKGRFTISRDNSKNTLYLQMNSLRAEDTAVYYCARYKSGAFDIWGQGTLVTVSS VL: EIVLTQSPGTLSLSPGERATLSCRASQGIGNYLGWYQQKPGQAPRLLIYTASSLQSGIPDRFSGSGSGTDFTLTISRLEPEDFAVYYCQQGYSTPSWTFGQGTKVEIK | – | – | – | – | – | no binding |
| #7 bispecific molecule (bispecific antibody, human IgG1, N297A, also called #7 (TRAP); B7-H3/TGFβ bispecific molecule #7) heavy: not shown VL: QSVLTQPPSASGTPGQRVTISCTGTSSDIGRYNYVSWYQQLPGTAPKLLIYRNTQRPSGVPDRFSGSKSGTSASLAISGLRSEDEADYYCGTWDSSLNAYVFGGGTKLTVL | 8.09 | 24.8 | 0.12 | 12.2 | 3.15 | – |
| #6 bispecific molecule (bispecific antibody, human IgG1, N297A, also called #6 (TRAP); B7-H3/TGFβ bispecific molecule #6) heavy: not shown VL: QSVLTQPPSASGTPGQRVTISCGGNNIGSKSVHWYQQLPGTAPKLLIYDNNKRPSGVPNRFSGSKSGTSASLAISGLRSEDEADYYCAAWDDSLNVPVFGGGTKLTVL | 4.56 | 9.08 | 0.083 | 1.34 | 2.21 | – |
| #9 bispecific molecule (bispecific antibody, human IgG1, N297A, also called #9 (TRAP); B7-H3/TGFβ bispecific molecule #9) heavy: not shown VL: QSVLTQPPSASGTPGQRVTISCSDNNIGSKSVHWYQQLPGTAPKLLIYDNNKRPSGVPDRFSGSKSGTSASLAISGLRSEDEADYYCGTWDDSLSGPVFGGGTKLTVL | 5.98 | 3.94 | 0.143 | 6.11 | 1.56 | – |
| #8 bispecific molecule (bispecific antibody, human IgG1, N297A, also called #8 (TRAP); B7-H3/TGFβ bispecific molecule #8) heavy: not shown VL: QSVLTQPPSASGTPGQRVTISCSGSNIGNNYVSWYQQLPGTAPKLLIYQDSKRPSGVPDRFSGSKSGTSASLAISGLRSEDEADYYCLVWDRSSDHFVFGGGTKLTVL | 2.94 | 3.41 | 2.08 | 1.72 | 1.98 | – |
| #4 bispecific molecule (bispecific antibody, human IgG1, N297A, also called #4 (TRAP); B7-H3/TGFβ bispecific molecule #4) heavy: not shown VL: QSVLTQPPSASGTPGQRVTISCSGSTSNIGSNTVNWYQQLPGTAPKLLIYGKNIRPNGVPDRFSGSKSGTSASLAISGLHSEDEADYYCQSYDSSLSGWVFGGGTKLTVL | 3.32 | 2.02 | 0.13 | 29.3 | 1.96 | – |
| #4 (mono) B7-H3 mono antibody free of TGFβ binding portion (antibody, human IgG1, N297A, V domains shown) VH: EVQLLESGGGLVQPGGSLRLSCAASGFTFSSYGMHWVRQAPGKGLEWVSAISGSGTSIYYANSVKSRFTISRDNSKNTLYLQMNSLRAEDTAVYYCARGAGWFDYWGQGTLVTVSS VL: QSVLTQPPSASGTPGQRVTISCSGSTSNIGSNTVNWYQQLPGTAPKLLIYGKNIRPNGVPDRFSGSKSGTSASLAISGLHSEDEADYYCQSYDSSLSGWVFGGGTKLTVL | – | – | – | – | – | no binding |
| #5 bispecific molecule (bispecific antibody, human IgG1, N297A, also called #5 (TRAP); B7-H3/TGFβ bispecific molecule #5) heavy: not shown VL: QSVLTQPPSASGTPGQRVTISCSGSSSNIGSNYVYWYQQLPGTAPKLLIYRNNQRPSGVPDRFSGSKSGTSASLAISGLRSEDEADYYCGTWDSSLSGVVFGGGTKLTVL | 3.14 | 3.62 | 0.143 | 10.2 | 3.74 | – |
| #3 bispecific molecule (bispecific antibody, human IgG1, N297A, also called #3 (TRAP); B7-H3/TGFβ bispecific molecule #3) heavy: not shown VL: EIVLTQSPGTLSLSPGERATLSCRVSQSISSYLNWYQQKPGQAPRLLIYDASHRATGIPDRFSGSGSGTDFTLTISRLEPEDFAVYYCQQYYAPSVTFGQGTKVEIK | 3.8 | 4.39 | 0.076 | 5.94 | 2.11 | – |
| #3 (mono) B7-H3 mono antibody free of TGFβ binding portion (antibody, human IgG1, N297A, V domains shown) VH: EVQLLESGGGLVQPGGSLRLSCAASGFTFSTYYMTWVRQAPGKGLEWVSIINPRGGSTSYAEKFQGRFTISRDNSKNTLYLQMNSLRAEDTAVYYCARWNLGMDVWGQGTLVTVSS VL: EIVLTQSPGTLSLSPGERATLSCRVSQSISSYLNWYQQKPGQAPRLLIYDASHRATGIPDRFSGSGSGTDFTLTISRLEPEDFAVYYCQQYYAPSVTFGQGTKVEIK | – | – | – | – | – | no binding |
| #2 bispecific molecule (bispecific antibody, human IgG1, N297A, also called #2 (TRAP); B7-H3/TGFβ bispecific molecule #2) heavy: not shown VL: EIVLTQSPGTLSLSPGERATLSCHASQGISNYVAWYQQKPGQAPRLLIYDASNRATGIPDRFSGSGSGTDFTLTISHLEPEDFAVYYCQQSYSTLLTFGQGTKVEIK | 7.92 | 5.83 | 0.14 | 3.19 | 1.43 | – |
| #2 (mono) B7-H3 mono antibody free of TGFβ binding portion (antibody, human IgG1, N297A, V domains shown) VH: EVQLLESGGGLVQPGGSLRLSCAASGFTFSAYYMIWVRQAPGKGLEWVSITNPSGGVTSYAQKFQGRFTISRDNSKNTLYLQMNSLRAEDTAVYYCARVGGRGFDIWGQGTLVTVSS VL: EIVLTQSPGTLSLSPGERATLSCHASQGISNYVAWYQQKPGQAPRLLIYDASNRATGIPDRFSGSGSGTDFTLTISHLEPEDFAVYYCQQSYSTLLTFGQGTKVEIK | – | – | – | – | – | no binding |
